This note sets out measurements from publication PMC10178846, “CERT1 mutations perturb human development by disrupting sphingolipid homeostasis” (The Journal of Clinical Investigation, 2023).

Data set [1] deals with the molecule itself. Nature of the data set: SEC-MALS; size-exclusion chromatography coupled to multiangle light scattering of recombinant CERT constructs; absolute molar mass. (In general: In gel filtration, larger molecules generally elute earlier.)
Data set [2] deals with the molecule itself. Nature of the data set: native MS; native MS of purified recombinant CERT 151-309 WT; deconvoluted mass spectrum.

“And” between values parts separate entries of the source, which are not always exact repeats. Equal entries are not always repeated.

One may read the stoichiometry N as a count of units in the complex or per binding partner.

B1: ceramide transporter CERT, recombinant full-length (CERT1 isoform 1, CERTL) (natural protein, human, UniProt Q9Y5P4-1 1-624, looked up)
chain: MSDNQSWNSSGSEEDPETESGPPVERCGVLSKWTNYIHGWQDRWVVLKNNALSYYKSEDETEYGCRGSICLSKAVITPHDFDECRFDISVNDSVWYLRAQDPDHRQQWIDAIEQHKTESGYGSESSLRRHGSMVSLVSGASGYSATSTSSFKKGHSLREKLAEMETFRDILCRQVDTLQKYFDACADAVSKDELQRDKVVEDDEDDFPTTRSDGDFLHSTNGNKEKLFPHVTPKGINGIDFKGEAITFKATTAGILATLSHCIELMVKREDSWQKRLDKETEKKRRTEEAYKNAMTELKKKSHFGGPDYEEGPNSLINEEEFFDAVEAALDRQDKIEEQSQSEKVRLHWPTSLPSGDAFSSVGTHRFVQKPYSRSSSMSSIDLVSASDDVHRFSSQVEEMVQNHMTYSLQDVGGDANWQLVVEEGEMKVYRREVEENGIVLDPLKATHAVKGVTGHEVCNYFWNVDVRNDWETTIENFHVVETLADNAIIIYQTHKRVWPASQRDVLYLSVIRKIPALTENDPETWIVCNFSVDHDSAPLNNRCVRAKINVAMICQTLVSPPEGNQEISRDNILCKITYVANVNPGGWAPASVLRAVAKREYPKFLKRFTSYVQEKTAGKPILF
notes: human ceramide transporter CERT (CERT1), isoform 1 (CERTL), NP_005704; full-length recombinant protein; also called CERT WT; source: recombinant
Consider B1, for which, in data set [1], the “stoichiometry N” value was found to be 2.

B2: CERT construct encompassing the PH plus CCD domains (aa 1-341) (domain or fragment, human, UniProt Q9Y5P4-1 1-341, looked up)
chain: MSDNQSWNSSGSEEDPETESGPPVERCGVLSKWTNYIHGWQDRWVVLKNNALSYYKSEDETEYGCRGSICLSKAVITPHDFDECRFDISVNDSVWYLRAQDPDHRQQWIDAIEQHKTESGYGSESSLRRHGSMVSLVSGASGYSATSTSSFKKGHSLREKLAEMETFRDILCRQVDTLQKYFDACADAVSKDELQRDKVVEDDEDDFPTTRSDGDFLHSTNGNKEKLFPHVTPKGINGIDFKGEAITFKATTAGILATLSHCIELMVKREDSWQKRLDKETEKKRRTEEAYKNAMTELKKKSHFGGPDYEEGPNSLINEEEFFDAVEAALDRQDKIEEQSQ
notes: human CERT (CERT1 isoform 1, CERTL), residues 1-341, PH plus CCD domains
As for B2, in data set [1], the “stoichiometry N” value was found to be 2.

B3: CERT central core domain (CCD), purified recombinant CERT 151-309 WT (domain or fragment, human, UniProt Q9Y5P4-1 151-309, looked up)
chain: FKKGHSLREKLAEMETFRDILCRQVDTLQKYFDACADAVSKDELQRDKVVEDDEDDFPTTRSDGDFLHSTNGNKEKLFPHVTPKGINGIDFKGEAITFKATTAGILATLSHCIELMVKREDSWQKRLDKETEKKRRTEEAYKNAMTELKKKSHFGGPDY
notes: human CERT (CERT1 isoform 1, CERTL), residues 151-309, central core domain; Theoretical MW is printed as 18.5 kDa; also called CERT CCD; source: recombinant, purified
Regarding B3, the “stoichiometry N” value in data set [2] was 2 and 4.
